± gives the standard error. Fewer inactive variants are shown than the library holds.
B1: glmS ribozyme (parent)
chain: AUAAAAGCGCCAGAACUACAGAAAUGUAGUUGACGAGGAGGAGGUUUAUCGAAUUUUCGGCGGAUGCCUCCAAA

Experiments:
Conditions in all cases: with glucosamine-6-phosphate
glucosamine-6-phosphate [1] = variants of: B1; assay: self-cleavage kobs at 40 uM GlcN6P; higher = faster cleavage; RNA array
In short: (§1)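 E. coli RNA polymerase transcribed barcoded ribozyme variants in situ on sequenced MiSeq chips, which were tracked via a hybridised Cy3 probe at 37 °C. Tiles were imaged over ~14 h after glucosamine-6-phosphate (40 μM to 10 mM) in HEPES/KCl/Mg(OAc)2 buffer was flowed in. Normalised per-tile medians were fit to one- or two-exponential decays for kobs, and kcat and KM came from weighted Michaelis–Menten fits.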

glucosamine-6-phosphate [2] = variants of: B1; assay: self-cleavage kobs at 160 uM GlcN6P; higher = faster cleavage; RNA array
In short: as §1

glucosamine-6-phosphate [3] = variants of: B1; assay: self-cleavage kobs at 2500 uM GlcN6P; higher = faster cleavage; RNA array
In short: as §1

glucosamine-6-phosphate [4] = variants of: B1; assay: self-cleavage kobs at 10000 uM GlcN6P; higher = faster cleavage; RNA array
In short: as §1

glucosamine-6-phosphate [5] = variants of: B1; assay: self-cleavage kobs at 640 uM GlcN6P; higher = faster cleavage; RNA array
In short: as §1

Variant | self-cleavage kobs at 40 uM GlcN6P (glucosamine-6-phosphate [1]) [s⁻¹] | self-cleavage kobs at 160 uM GlcN6P (glucosamine-6-phosphate [2]) [s⁻¹] | self-cleavage kobs at 2500 uM GlcN6P (glucosamine-6-phosphate [3]) [s⁻¹] | self-cleavage kobs at 10000 uM GlcN6P (glucosamine-6-phosphate [4]) [s⁻¹] | self-cleavage kobs at 640 uM GlcN6P (glucosamine-6-phosphate [5]) [s⁻¹]
G7A U31C A48U | < 1e-05 | – | – | – | –
C34U U45C | < 1e-05 | < 1e-05 | < 1e-05 | < 1e-05 | –
G9U G60U | < 1e-05 | – | < 1e-05 | – | < 1e-05
U31A G63U | < 1e-05 | < 1e-05 | < 1e-05 | < 1e-05 | < 1e-05
C34G C50G C68A C70U | 8.07e-05 ± 2.3e-05 | – | 0.000366 ± 0.00013 | 5.45e-05 ± 1.1e-05 | –
G32U U55G A64U | < 1e-05 | – | – | – | –
G60U G62C A64C | < 1e-05 | – | – | – | < 1e-05
A52U A64G C70A | < 1e-05 | – | – | – | –
G37U G41U U65C | < 1e-05 | – | – | – | –
A12U G40A G44U | < 1e-05 | – | – | – | < 1e-05
G51C G66U | < 1e-05 | – | < 1e-05 | < 1e-05 | < 1e-05
G35C A39C | < 1e-05 | < 1e-05 | < 1e-05 | < 1e-05 | < 1e-05
G9A G40U C50G | < 1e-05 | – | – | – | –
C8G A48C | < 1e-05 | < 1e-05 | < 1e-05 | – | –
G29U G32C C61G | < 1e-05 | – | – | < 1e-05 | –
G38A A42C | < 1e-05 | – | – | < 1e-05 | –
G32A G62A | < 1e-05 | < 1e-05 | – | < 1e-05 | < 1e-05
A14C U46A G59A C68G | < 1e-05 | – | – | – | –
G35C C50U | < 1e-05 | < 1e-05 | < 1e-05 | < 1e-05 | < 1e-05
C10A U45G | < 1e-05 | – | < 1e-05 | < 1e-05 | < 1e-05
A6G U31G C34G | < 1e-05 | – | – | < 1e-05 | < 1e-05
A14C G32A A52U | < 1e-05 | – | 5.9e-05 ± 2.1e-05 | 9.78e-05 ± 1.9e-05 | –
C10U C34A | < 1e-05 | < 1e-05 | – | < 1e-05 | < 1e-05
G9C A36G | < 1e-05 | – | – | < 1e-05 | < 1e-05

Variant | self-cleavage kobs at 40 uM GlcN6P (glucosamine-6-phosphate [1]) [s⁻¹] | self-cleavage kobs at 160 uM GlcN6P (glucosamine-6-phosphate [2]) [s⁻¹] | self-cleavage kobs at 2500 uM GlcN6P (glucosamine-6-phosphate [3]) [s⁻¹] | self-cleavage kobs at 10000 uM GlcN6P (glucosamine-6-phosphate [4]) [s⁻¹] | self-cleavage kobs at 640 uM GlcN6P (glucosamine-6-phosphate [5]) [s⁻¹]
A14C C34G G40U | < 1e-05 | – | < 1e-05 | – | –
A14C G35U G43C | < 1e-05 | – | – | – | –
A14G U54G | 0.00166 ± 0.00021 | 0.0021 ± 0.00047 | – | 0.023 ± 0.0048 | 0.0114 ± 0.003
G35C G41U | < 1e-05 | < 1e-05 | < 1e-05 | < 1e-05 | < 1e-05
G38A U57A U65C | < 1e-05 | – | – | – | –
A14U C16U C70U | 0.000248 ± 7.9e-05 | – | 0.00092 ± 0.0002 | 0.00877 ± 0.0026 | –
A52C A53U G59A A64C | < 1e-05 | – | – | – | < 1e-05
G40U G59C | < 1e-05 | – | – | – | < 1e-05
G63C A64C | < 1e-05 | < 1e-05 | – | < 1e-05 | –
C10A A14C | < 1e-05 | – | < 1e-05 | – | < 1e-05
A6G C8A G32C | < 1e-05 | – | < 1e-05 | – | –
G32U A48U C58U C68U | < 1e-05 | – | – | – | –
G13A A64U | < 1e-05 | – | < 1e-05 | < 1e-05 | < 1e-05
C11A A14C G63C U69C | < 1e-05 | – | – | – | –
A39G C70U | 0.00118 ± 0.00015 | 0.0014 ± 0.0004 | 0.0127 ± 0.0053 | 0.022 ± 0.0045 | 0.00828 ± 0.0017
G41A G63U | < 1e-05 | < 1e-05 | < 1e-05 | < 1e-05 | < 1e-05
U30A A39U C67G C68G | 0.000113 ± 2.1e-05 | – | – | 8.62e-05 ± 1.7e-05 | –
U31A G32U A36U G59A | < 1e-05 | – | – | < 1e-05 | –
C10G A53U G59A C70G | < 1e-05 | – | – | < 1e-05 | –
U31C U45C C58A C61G C67G | < 1e-05 | – | – | < 1e-05 | –
G37U G40C | < 1e-05 | < 1e-05 | < 1e-05 | < 1e-05 | < 1e-05
G13A C61G C68A C70U | < 1e-05 | – | – | – | –
G59U G62U C71U | < 1e-05 | – | – | – | –
A6C U31C C68G | < 1e-05 | – | – | – | –

Variant | self-cleavage kobs at 40 uM GlcN6P (glucosamine-6-phosphate [1]) [s⁻¹] | self-cleavage kobs at 160 uM GlcN6P (glucosamine-6-phosphate [2]) [s⁻¹] | self-cleavage kobs at 2500 uM GlcN6P (glucosamine-6-phosphate [3]) [s⁻¹] | self-cleavage kobs at 10000 uM GlcN6P (glucosamine-6-phosphate [4]) [s⁻¹] | self-cleavage kobs at 640 uM GlcN6P (glucosamine-6-phosphate [5]) [s⁻¹]
A39C G44C U65C | < 1e-05 | – | – | – | –
A12U C34G | < 1e-05 | < 1e-05 | < 1e-05 | < 1e-05 | < 1e-05
C34G G37C C61U U65A | < 1e-05 | – | – | < 1e-05 | –
A15G U47A C50A | < 1e-05 | – | – | – | –
C11G G44C | < 1e-05 | < 1e-05 | < 1e-05 | – | < 1e-05
G7U A12C C50G C61A | 0.000187 ± 7.2e-05 | – | – | 0.000332 ± 0.00012 | –
A15C G38C A52G | < 1e-05 | – | < 1e-05 | – | –
G9A C11G A52C C68U | < 1e-05 | – | – | < 1e-05 | –
G29U G63C | < 1e-05 | – | – | < 1e-05 | < 1e-05
A12G G40U U54G | < 1e-05 | – | – | 0.000231 ± 6e-05 | –
A1C C11U A64G | 8.55e-05 ± 2.5e-05 | – | – | 0.00142 ± 0.00035 | –
G7C C11A | < 1e-05 | < 1e-05 | – | < 1e-05 | < 1e-05
G37A G51A A53C | < 1e-05 | – | – | < 1e-05 | –
C10G C50A | < 1e-05 | – | – | – | < 1e-05
G41U U49C C61G | < 1e-05 | – | – | < 1e-05 | –
A6U G35A | < 1e-05 | < 1e-05 | – | – | < 1e-05
G38A A39G | < 1e-05 | < 1e-05 | < 1e-05 | – | < 1e-05
G7U C8G G32C U56G C61A | < 1e-05 | – | < 1e-05 | – | –
A15U G63U | < 1e-05 | < 1e-05 | – | < 1e-05 | < 1e-05
A6G G32A G37C U46G C58A C67G | 0.000232 ± 6.3e-05 | – | – | 0.000132 ± 3.3e-05 | 0.000494 ± 0.00014
C11G G32A | < 1e-05 | < 1e-05 | – | < 1e-05 | < 1e-05
A33U G43U C50G G51U | < 1e-05 | – | – | – | –
C8A A33U G44A A64U | < 1e-05 | – | – | – | < 1e-05
U30C C61A | < 1e-05 | – | – | < 1e-05 | –

Variant | self-cleavage kobs at 40 uM GlcN6P (glucosamine-6-phosphate [1]) [s⁻¹] | self-cleavage kobs at 160 uM GlcN6P (glucosamine-6-phosphate [2]) [s⁻¹] | self-cleavage kobs at 2500 uM GlcN6P (glucosamine-6-phosphate [3]) [s⁻¹] | self-cleavage kobs at 10000 uM GlcN6P (glucosamine-6-phosphate [4]) [s⁻¹] | self-cleavage kobs at 640 uM GlcN6P (glucosamine-6-phosphate [5]) [s⁻¹]
A14G A15G G66U | 0.0002 ± 4.3e-05 | – | 0.00252 ± 0.0011 | 0.0089 ± 0.0018 | –
C10G G35C G40A U57G | < 1e-05 | – | < 1e-05 | – | –
A33G G62C | < 1e-05 | – | < 1e-05 | < 1e-05 | < 1e-05
A12U A33C A42C | < 1e-05 | – | – | – | –
G32C A42C C68A | < 1e-05 | – | – | – | < 1e-05
G29A U69C | 6.51e-05 ± 1.6e-05 | 7e-05 ± 1.3e-05 | 0.000105 ± 1.6e-05 | 0.000486 ± 0.00013 | 0.000122 ± 2.2e-05
A12U A33G G63A | < 1e-05 | – | – | – | –
G9C A42U | < 1e-05 | < 1e-05 | < 1e-05 | – | –
U54G U69C | 0.00112 ± 0.00028 | 0.000153 ± 6e-05 | 0.00133 ± 0.00041 | 0.00526 ± 0.0011 | 0.000689 ± 0.00017
A33U G37C | < 1e-05 | < 1e-05 | – | < 1e-05 | –
G35U U47A U57C | < 1e-05 | – | – | – | –
G60A C61G | < 1e-05 | – | < 1e-05 | < 1e-05 | –
A6G G66U | < 1e-05 | < 1e-05 | – | – | < 1e-05
A6G G40C U47G U49G C58G C68A | < 1e-05 | – | – | < 1e-05 | –
G43C A64G | < 1e-05 | < 1e-05 | < 1e-05 | < 1e-05 | < 1e-05
A33C G44A C71A | < 1e-05 | – | – | < 1e-05 | –
C8U U69G | 0.000157 ± 3.4e-05 | – | – | 0.000167 ± 3.1e-05 | 0.00216 ± 0.00095
C11A C70G | 2.86e-05 ± 1.2e-05 | 4.84e-05 ± 2e-05 | 5.3e-05 ± 1.3e-05 | 3.06e-05 ± 1.1e-05 | 0.00013 ± 2.5e-05
G44A U56C C61U | < 1e-05 | – | < 1e-05 | < 1e-05 | < 1e-05
C8A G37C U69G C71G | 0.000455 ± 0.00017 | – | – | – | –
U46A U49G | < 1e-05 | – | – | 2.85e-05 ± 1.2e-05 | –
A15C G41U C70A | 0.000696 ± 0.00013 | – | – | – | –
C10U A52C | < 1e-05 | – | – | < 1e-05 | –
G35C U65A | < 1e-05 | – | – | < 1e-05 | < 1e-05

— the supplement of paper PMC7125110
